Laboratory results published in patent US20030113711A1, “Protein kinase peptide substrate determination using peptide libraries” (priority 2001, published 2003).

Tests used:
Format in all cases: biochemical
[1] = tested on: CC[C@H](C)[C@H](NC(=O)[C@H](CCC(=O)O)NC(=O)[C@H](Cc1c[nH]cn1)NC(=O)[C@H](Cc1c[nH]cn1)NC(=O)[C@H](C)NC(=O)[C@H](CCCNC(=N)N)NC(=O)CCCCCNC(=O)CCCC[C@@H]1SC[C@@H]2NC(=O)N[C@@H]21)C(=O)N[C@@H](Cc1ccc(O)cc1)C(=O)N[C@@H](Cc1c[nH]cn1)C(=O)N[C@@H](Cc1ccccc1)C(=O)N[C@@H](Cc1ccccc1)C(=O)N[C@@H](Cc1ccccc1)C(=O)N[C@@H](C)C(=O)N[C@@H](CCCCN)C(=O)N[C@@H](CCCCN)C(=O)N[C@@H](CCCCN)C(N)=O; test: Kinetic evaluation of peptide substrates, varying peptide at fixed ATP (phosphocellulose filter, [γ-33P]ATP); conditions: other: ErbB-2; Km for peptide; ATP concentration >10 × Km (200 μM ATP); pH 7.5; 23.0 °C
Procedure: (§1) Peptide sequences identified as preferred substrates for ErbB-2 using the methods described in Laboratory Example 3 were synthesized. The kcat and Km values for each peptide were determined as follows, using the kinases ErbB-2, ErbB-4, and EGFR.
(§2) Reactions were performed in 96-well polystyrene round bottom plates in a final volume of 45 μL. Reaction mixtures contained 50 mM MOPS, pH 7.5, 10 mM MnCl2, 1 mM dithiothreitol (DTT), 200 μM ATP, 1.0 μCi [γ-^33P] ATP, and varying concentrations of peptide. The reaction was initiated by adding the purified kinase of interest and halted after 10 minutes at 23° C. (room temperature) by adding 45 μL of 0.5% phosphoric acid in water. A 75 μL aliquot of the halted reaction mixture was then transferred to MAPH phosphocellulose filter plates (Millipore, Bedford, Mass.). The plates were filtered three times with 0.2 mL of 0.5 percent phosphoric acid. Scintillation cocktail (50 μL) was added to each well, and the plate was analyzed by counting in a Packard TOPCOUNT® scintillation counter (Packard Instrument Co., Meriden, Conn.). In these assays, the concentration of ATP was greater than ten-fold higher than the Km for ATP, which permitted the kinetic data to be treated as a pseudo-first-order reaction with varying peptide concentration. All experiments were performed in quadruplicate and the average value for each data point was analyzed. The Km and Vmax values were calculated by fitting the data to the Henri-Michaelis-Menten equation by non-linear regression using SIGMAPLOT® (SPSS Science, Chicago, Ill.). kcat values were calculated using the Vmax value, and are based on the protein concentration of the enzyme preparation and an estimate of purity determined from an evaluation of a Coomassie Blue stained SDS-polyacrylamide gel.

[2] = tested on: CC[C@H](C)[C@H](NC(=O)[C@H](Cc1ccccc1)NC(=O)[C@H](Cc1c[nH]cn1)NC(=O)[C@H](Cc1ccc(O)cc1)NC(=O)[C@H](CCC(=O)O)NC(=O)[C@H](CCC(=O)O)NC(=O)[C@H](CCC(=O)O)NC(=O)[C@H](Cc1c[nH]cn1)NC(=O)[C@H](C)NC(=O)[C@H](CCCNC(=N)N)NC(=O)CCCCCNC(=O)CCCC[C@@H]1SC[C@@H]2NC(=O)N[C@@H]21)C(=O)N[C@@H](Cc1ccccc1)C(=O)N[C@@H](C)C(=O)N[C@@H](CCCCN)C(=O)N[C@@H](CCCCN)C(=O)N[C@@H](CCCCN)C(N)=O; test: as above; conditions: other: ErbB-2; Km for peptide; ATP concentration >10 × Km (200 μM ATP); pH 7.5; 23.0 °C
Procedure: as §1, §2

[3] = tested on: CC[C@H](C)[C@H](NC(=O)[C@H](CCC(=O)O)NC(=O)[C@H](CCC(=O)O)NC(=O)[C@H](Cc1c[nH]cn1)NC(=O)[C@H](C)NC(=O)[C@H](CCCNC(=N)N)NC(=O)CCCCCNC(=O)CCCC[C@@H]1SC[C@@H]2NC(=O)N[C@@H]21)C(=O)N[C@@H](Cc1ccc(O)cc1)C(=O)N[C@@H](Cc1c[nH]cn1)C(=O)N[C@@H](Cc1ccccc1)C(=O)N[C@@H](Cc1ccccc1)C(=O)N[C@@H](Cc1ccccc1)C(=O)N[C@@H](C)C(=O)N[C@@H](CCCCN)C(=O)N[C@@H](CCCCN)C(=O)N[C@@H](CCCCN)C(N)=O; test: Two-substrate kinetic comparison with known substrate, peptide and ATP varied simultaneously; conditions: other: ErbB-2; peptide and ATP concentrations varied simultaneously, two-substrate fit
Procedure: (§3) In a separate experiment, the kinetic parameters of both peptide number 1 shown in Table 2, and a peptide with the sequence Biotin-Ahx-G-G-M-E-D-I-Y-F-E-F-M-G-G-K-K-K-amide (SEQ ID NO: 17), which has been previously identified as an ErbB-2 substrate (Jan et. al., (2000), Biochemistry 39: 9786-803), were determined and compared. In this experiment, both peptide and ATP concentrations were varied, and the resulting data was simultaneously fit to an equation representing a two-substrate enzyme reaction using SIGMAPLOT®. Data was collected using the kinases ErbB-2, ErbB-4, and EGFR. The results of this experiment are shown in Table 3 and indicate that for all three kinases tested, peptide number 1 shown in Table 2 is kinetically at least equivalent (based on kcat/Km values) to the known peptide substrate identified by Jan et al.

[4] = tested on: CC[C@H](C)[C@H](NC(=O)[C@H](CC(=O)O)NC(=O)[C@H](CCC(=O)O)NC(=O)[C@H](CCSC)NC(=O)CNC(=O)CNC(=O)CCCCCNC(=O)CCCC[C@@H]1SC[C@@H]2NC(=O)N[C@@H]21)C(=O)N[C@@H](Cc1ccc(O)cc1)C(=O)N[C@@H](Cc1ccccc1)C(=O)N[C@@H](CCC(=O)O)C(=O)N[C@@H](Cc1ccccc1)C(=O)N[C@@H](CCSC)C(=O)NCC(=O)NCC(=O)N[C@@H](CCCCN)C(=O)N[C@@H](CCCCN)C(=O)N[C@@H](CCCCN)C(N)=O; test: as above; conditions: other: ErbB-2; peptide and ATP concentrations varied simultaneously, two-substrate fit
Procedure: as §3

ErbB-2 (Homo sapiens) was tested, and the Km [1] was 66.6 µM, the kcat [1] was 0.173 s⁻¹ and the kcat/Km [1] was 2670 M⁻¹ s⁻¹. The Km [2] was 8.6 µM, the kcat [2] was 0.0333 s⁻¹ and the kcat/Km [2] was 3830 M⁻¹ s⁻¹. It also gave a Km [3] of 58 µM, a kcat [3] of 0.0233 s⁻¹ and a kcat/Km [3] of 417 M⁻¹ s⁻¹. For the same substance, the Km [4] was 157 µM, the kcat [4] was 0.0367 s⁻¹ and the kcat/Km [4] was 233 M⁻¹ s⁻¹.
